Blank lines part the entries; values can stand above or below the molecule they belong to. Peptide text beside a SMILES is read from it. * marks the point of attachment. AOMK = acyloxymethyl ketone warhead replacing the C-terminal carboxyl; AMC = Cc1cc(=O)oc2cc(N*)ccc12; Cbz = O=C(OCc1ccccc1)*
Legend:
cathepsin B = molecular target: T1, cathepsin B (Homo sapiens, UniProt P07858); assay: pH profile of cathepsin B activity with peptide-AMC substrates; type: biochemical; details: substrate 60 μM
T1 construct: purchased R&D Systems 953-CY-010
Method: Cathepsin B activity assayed by fluorogenic peptide substrates. Proteolytic assays of cathepsin B were conducted with Z-Arg-Lys-AMC and Z-Gly-Lys-AMC substrates in 50 mM citrate phosphate at pH 7.2 or pH 4.6, 1 mM EDTA, 100 mM NaCl, and 5 mM DTT. Assays with Z-Phe-Arg-AMC substrate were conducted under identical conditions and included 0.01% Tween20. Assays were performed in 384 well plates at 25° C. in a total volume of 30 μL. Fluorescence was quantified by a Biotek Synergy HTX microplate plate reader with excitation 360 nm, emission 460 nm, gain 50, top optics and read height 1 mm. Proteolytic activity is reported as relative fluorescent units per sec (RFU/sec), and was calculated using the highest slope recorded for 10 consecutive readings. Fluorescent readings were taken in 46 sec intervals and therefore activity is calculated over a total of 460 sec. To ensure that initial velocity is assessed, only readings within the first 30 minutes of the reaction were analyzed. RFU/sec readings were converted to enzyme specific activity of pmol/min/μg using the conversion factor of 1227 RFU per μM AMC.
To generate the pH profile of cathepsin B activity with the substrates Z-Arg-Lys-AMC, Z-Glu-Lys-AMC, and Z-Phe-Arg-AMC, 60 μM of each substrate and 0.04 ng/ul of cathepsin B were assayed in citrate phosphate buffers ranging from pH 2.2 to 7.4 in increments of 0.4 pH units, including pH 7.2. […]

cathepsin L = molecular target: T2, cathepsin L (Homo sapiens, UniProt P07711); assay: Specificity of peptide-AMC substrates: cathepsin L; type: biochemical
T2 construct: purchased R&D Systems 952-CY-010
T2 sequence (P07711 114-333): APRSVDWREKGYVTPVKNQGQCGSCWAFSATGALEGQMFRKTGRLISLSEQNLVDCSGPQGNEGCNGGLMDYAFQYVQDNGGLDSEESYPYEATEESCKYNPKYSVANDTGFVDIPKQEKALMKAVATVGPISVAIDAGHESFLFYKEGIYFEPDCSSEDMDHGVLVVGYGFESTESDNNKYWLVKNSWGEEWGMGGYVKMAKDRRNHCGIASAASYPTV

cathepsin V = molecular target: T3, cathepsin V (Homo sapiens, UniProt O60911); assay: Specificity of peptide-AMC substrates: cathepsin V; type: biochemical
T3 construct: purchased R&D Systems 1080-CY-010

[1] = molecular target: Recombinant human cathepsin B (R&D #953-CY-010) (human) (UniProt P07858); assay: inactivation kinetics, fluorogenic cathepsin B assay with Z-Phe-Arg-AMC, pH 7.2
[2] = molecular target: Recombinant human cathepsin B (R&D #953-CY-010) (human) (UniProt P07858); assay: cell-based or functional assay
[3] = molecular target: Recombinant human cathepsin B (R&D #953-CY-010) (human) (UniProt P07858); assay: inactivation kinetics, fluorogenic cathepsin B assay with Z-Phe-Arg-AMC, pH 4.6
[4] = molecular target: Recombinant human cathepsin B (R&D #953-CY-010) (human) (UniProt P07858); assay: ratio of KI values, fluorogenic cathepsin B assay
[5] = molecular target: T4, cathepsin B in human neuroblastoma cells (SHSY5Y) (Homo sapiens, UniProt P07858); assay: Neuroblastoma cells incubated with inhibitors, then cathepsin B assay; type: cell-based; details: cells incubated with 50 μM inhibitor for 6 hrs, washed, homogenate assayed with Z-Arg-Arg-AMC
T4 construct: endogenous in cells; host or cells: SH-SY5Y human neuroblastoma cells
Method: Cathepsin B in human neuroblastoma cells treated with inhibitors. Neuroblastoma cells (human SHSY5Y) were grown in media consisting of 50% MEMalpha, 50% F12-K, 10% heat-inactivated FBS at 37° C. in an atmosphere of 95% air and 5% CO2. Firstly, cell homogenates were prepared by collection of cells in 0.32 M sucrose and freeze-thawing. Secondly, cells were incubated with Z-Arg-Lys-AOMK or CA-074Me for 6 hours at 37° C., and washed 3 times in phosphate-buffered saline and homogenates were prepared in 0.32 M sucrose with freeze-thawing. CA-074Me is a methyl ester form of the active CA-074 selective inhibitor of cathepsin B (70); CA-074Me penetrates the cell and is converted by intracellular esterases to CA-074.
Cathepsin B activity in the homogenates were monitored with Z-Arg-Arg-AMC substrate (60 μM) with buffer conditions of 40 mM citrate-phosphate, pH 5.5, 5 mM DTT, 1 mM EDTA, 100 mM NaCl, and 1.2% DMSO, followed by incubation at 37° C. for 30 minutes and reading of AMC fluorescence. CA-074-senstive activity was monitored to indicate cathepsin B activity, since CA-074 is a selective inhibitor of this enzyme (70). Protein content was measured in homogenates with the DC protein assay kit. Cathepsin B specific activity was calculated as nmol AMC/μg/min, and reported as the mean±SD (with analyses for statistical significance, p<0.05 by student's t-test).

[6] = molecular target: T5, cathepsin K (Abcam #ab157067) (human, UniProt P43235 115-329, limits assumed); assay: cell-based or functional assay
T5 sequence (looked up): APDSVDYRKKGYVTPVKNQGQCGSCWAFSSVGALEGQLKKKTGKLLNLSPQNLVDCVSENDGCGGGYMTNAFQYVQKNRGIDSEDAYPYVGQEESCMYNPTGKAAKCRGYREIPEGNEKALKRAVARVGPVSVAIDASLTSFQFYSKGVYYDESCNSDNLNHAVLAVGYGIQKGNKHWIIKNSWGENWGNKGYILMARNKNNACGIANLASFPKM

[7] = molecular target: cathepsin C (R&D #1071-CY-010) (human, UniProt P53634 25-463); assay: cell-based or functional assay
cathepsin C (R&D #1071-CY-010), sequence (P53634 25-463 limits assumed): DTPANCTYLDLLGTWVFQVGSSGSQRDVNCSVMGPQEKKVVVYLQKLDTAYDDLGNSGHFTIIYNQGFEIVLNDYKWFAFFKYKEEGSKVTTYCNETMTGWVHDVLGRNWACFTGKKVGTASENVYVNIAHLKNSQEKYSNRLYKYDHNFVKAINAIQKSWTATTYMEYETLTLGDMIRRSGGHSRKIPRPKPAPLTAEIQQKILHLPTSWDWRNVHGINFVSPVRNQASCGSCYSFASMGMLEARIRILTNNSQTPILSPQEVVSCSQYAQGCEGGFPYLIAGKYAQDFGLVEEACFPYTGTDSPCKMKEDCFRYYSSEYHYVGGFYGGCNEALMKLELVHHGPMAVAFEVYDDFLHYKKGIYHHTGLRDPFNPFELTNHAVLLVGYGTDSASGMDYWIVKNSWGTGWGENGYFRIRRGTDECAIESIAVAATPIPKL

[8] = molecular target: cathepsin L (R&D #952-CY-010) (human, UniProt P07711 114-333); assay: cell-based or functional assay
cathepsin L (R&D #952-CY-010), sequence (P07711 114-333): as the sequence (P07711 114-333) above

[9] = molecular target: T6, cathepsin H (R&D #75116-CY-010) (human, UniProt P09668 116-335); assay: cell-based or functional assay
T6 sequence (looked up): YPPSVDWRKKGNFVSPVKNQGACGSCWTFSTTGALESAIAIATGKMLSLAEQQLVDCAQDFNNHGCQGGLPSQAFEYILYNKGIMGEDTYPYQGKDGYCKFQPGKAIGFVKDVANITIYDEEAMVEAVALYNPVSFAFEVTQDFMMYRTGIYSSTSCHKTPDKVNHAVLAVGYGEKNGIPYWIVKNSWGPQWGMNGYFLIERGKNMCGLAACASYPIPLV

[10] = molecular target: cathepsin S (R&D #1183-CY-010) (human, UniProt P25774 17-331); assay: cell-based or functional assay
cathepsin S (R&D #1183-CY-010), sequence (P25774 17-331 limits assumed): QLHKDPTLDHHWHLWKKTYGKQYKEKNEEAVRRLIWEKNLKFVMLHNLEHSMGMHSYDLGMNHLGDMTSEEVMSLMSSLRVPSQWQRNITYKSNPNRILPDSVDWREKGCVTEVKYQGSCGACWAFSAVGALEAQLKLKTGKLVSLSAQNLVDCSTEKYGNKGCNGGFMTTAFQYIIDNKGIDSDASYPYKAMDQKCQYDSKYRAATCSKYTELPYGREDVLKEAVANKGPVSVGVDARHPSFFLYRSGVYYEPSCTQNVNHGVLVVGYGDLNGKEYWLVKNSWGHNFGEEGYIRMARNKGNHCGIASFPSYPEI

[11] = molecular target: T7, cathepsin V (R&D #1080-CY-010) (human, UniProt O60911 18-334); assay: cell-based or functional assay
T7 sequence (looked up): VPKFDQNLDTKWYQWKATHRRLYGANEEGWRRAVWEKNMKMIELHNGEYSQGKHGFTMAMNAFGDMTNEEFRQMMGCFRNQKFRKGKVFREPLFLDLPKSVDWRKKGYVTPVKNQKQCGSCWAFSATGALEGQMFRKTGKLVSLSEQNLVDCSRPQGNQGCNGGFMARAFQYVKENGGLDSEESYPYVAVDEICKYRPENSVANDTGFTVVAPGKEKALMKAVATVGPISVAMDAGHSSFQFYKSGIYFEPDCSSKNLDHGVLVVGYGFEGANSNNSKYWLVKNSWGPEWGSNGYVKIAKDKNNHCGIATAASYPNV

cathepsin X = cathepsin X (UniProt Q9UBR2 24-303, limits assumed); assay: cell-based or functional assay
cathepsin X, sequence (Q9UBR2 24-303 limits assumed): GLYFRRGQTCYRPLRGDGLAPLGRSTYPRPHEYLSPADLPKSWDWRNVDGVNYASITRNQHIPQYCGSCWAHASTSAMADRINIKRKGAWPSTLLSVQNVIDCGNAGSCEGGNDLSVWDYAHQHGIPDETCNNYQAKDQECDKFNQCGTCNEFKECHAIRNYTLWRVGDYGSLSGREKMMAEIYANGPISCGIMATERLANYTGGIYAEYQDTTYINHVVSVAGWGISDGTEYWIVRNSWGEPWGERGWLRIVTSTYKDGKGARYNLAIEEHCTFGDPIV

pH of maximal hydrolysis by cathepsin B (cathepsin B): 4.6
substrate activity for cathepsin L (cathepsin L; pH 4.6): no activity
substrate activity for cathepsin V (cathepsin V; pH 4.6): no activity
Molecule: Cc1cc(=O)oc2cc(NC(=O)[C@H](CCCCN)NC(=O)[C@H](CCC(=O)O)NC(=O)OCc3ccccc3)ccc12 [Z-Glu-Lys-AMC] (Cbz-Glu-Lys-{AMC})

substrate activity for cathepsin L (cathepsin L; pH 4.6): cleaved
substrate activity for cathepsin V (cathepsin V; pH 4.6): cleaved
Molecule: Cc1cc(=O)oc2cc(NC(=O)C(CCCN=C(N)N)NC(=O)C(Cc3ccccc3)NC(=O)OCc3ccccc3)ccc12 (stereo not drawn) [Z-Phe-Arg-AMC] (Cbz-Phe-Arg-{AMC}; configuration not given here)

Kinact/KI [1]: 110000 M⁻¹ s⁻¹
IC50 of inhibition of cathepsin B activity (Z-Phe-Arg-AMC substrate, no pre-incubation), pH 4.6 [2]: 1.5 µM
IC50 of inhibition of cathepsin B activity (Z-Phe-Arg-AMC substrate, no pre-incubation), pH 7.2 [2]: 20 nM
IC50 of inhibition of cathepsin B activity, pH 6.8 (data not shown) [2]: 22 nM
IC50 of inhibition of enzyme activity, pH 4.6 [2]: 1.5 µM
IC50 of inhibition of enzyme activity, pH 7.2 [2]: 20 nM
fold greater potency (IC50) for cathepsin B than for cathepsin C, pH 7.2 [2]: 43 fold
fold greater potency (IC50) for cathepsin B than for cathepsin S, pH 7.2 [2]: 110 fold
fold greater potency (IC50) for cathepsin B than for cathepsin V, pH 7.2 [2]: 22 fold
reduction of cathepsin B activity (Z-Phe-Arg-AMC substrate) by 64 nM inhibitor, pH 4.6 [2]: 5%
reduction of cathepsin B activity (Z-Phe-Arg-AMC substrate) by 64 nM inhibitor, pH 7.2 [2]: 93%
Kinact/KI [3]: 1800 M⁻¹ s⁻¹
fold greater potency (KI) at pH 7.2 compared to pH 4.6 [4]: 115 fold
Molecule: Z-Arg-Lys-AOMK (peptide)

pH of maximal hydrolysis by cathepsin B (cathepsin B): 7.8
substrate activity for cathepsin L (cathepsin L; pH 7.2 (data not shown)): no activity
substrate activity for cathepsin V (cathepsin V; pH 7.2 (data not shown)): no activity
Molecule: Cc1cc(=O)oc2cc(NC(=O)[C@H](CCCCN)NC(=O)[C@H](CCCNC(=N)N)NC(=O)OCc3ccccc3)ccc12 [Z-Arg-Lys-AMC] (Cbz-Arg-Lys-{AMC})

Kinact/KI [1]: 8200 M⁻¹ s⁻¹
IC50 of inhibition of cathepsin B activity (Z-Phe-Arg-AMC substrate, no pre-incubation), pH 4.6 [2]: 1.1 µM
IC50 of inhibition of cathepsin B activity (Z-Phe-Arg-AMC substrate, no pre-incubation), pH 7.2 [2]: 320 nM
IC50 of inhibition of enzyme activity, pH 4.6 [2]: 1.1 µM
IC50 of inhibition of enzyme activity, pH 7.2 [2]: 320 nM
fold greater potency (IC50) for cathepsin B than for cathepsin C, pH 7.2 [2]: 38 fold
Kinact/KI [3]: 2000 M⁻¹ s⁻¹
fold greater potency (KI) at pH 7.2 compared to pH 4.6 [4]: 3.5 fold
Molecule: Z-Glu-Lys-AOMK (peptide)

Molecule: CCCNC(=O)[C@H]1O[C@@H]1C(=O)N[C@H](C(=O)N1CCC[C@H]1C(=O)OC)[C@@H](C)CC [CA-074Me, reference compound]
inhibition of cellular cathepsin B activity [5]: completely inhibited

% inhibition of enzyme activity at 16,000 nM inhibitor, pH 7.2 [6]: 31%
IC50 of inhibition of enzyme activity (Z-Phe-Arg-AMC substrate), pH 7.2 [6]: > 16 µM
% inhibition of enzyme activity at 16,000 nM inhibitor, pH 4.6 [7]: 6%
IC50 of inhibition of enzyme activity (Gly-Arg-AMC substrate), pH 4.6 [7]: > 16 µM
IC50 of inhibition of enzyme activity (Gly-Arg-AMC substrate), pH 7.2 [7]: 850 nM
% inhibition of enzyme activity at 16,000 nM inhibitor, pH 4.6 [8]: 32%
IC50 of inhibition of enzyme activity (Z-Phe-Arg-AMC substrate), pH 4.6 [8]: > 16 µM
% inhibition of enzyme activity at 16,000 nM inhibitor, pH 7.2 [9]: 29%
IC50 of inhibition of enzyme activity (Arg-AMC substrate), pH 7.2 [9]: > 16 µM
% inhibition of enzyme activity at 16,000 nM inhibitor, pH 4.6 [10]: 13%
IC50 of inhibition of enzyme activity (Z-Phe-Arg-AMC substrate), pH 4.6 [10]: > 16 µM
IC50 of inhibition of enzyme activity (Z-Phe-Arg-AMC substrate), pH 7.2 [10]: 2.2 µM
% inhibition of enzyme activity at 16,000 nM inhibitor, pH 4.6 [11]: 63%
IC50 of inhibition of enzyme activity (Z-Phe-Arg-AMC substrate), pH 4.6 [11]: > 16 µM
IC50 of inhibition of enzyme activity (Z-Phe-Arg-AMC substrate), pH 7.2 [11]: 440 nM
% inhibition of enzyme activity at 16,000 nM inhibitor, pH 4.6 (cathepsin X): 21%
IC50 of inhibition of enzyme activity (MCA-Arg-Pro-Pro-Gly-Phe-Ser-Ala-Phe-Lys(Dnp)OH substrate), pH 4.6 (cathepsin X): > 16 µM
Molecule: Cbz-Arg-Lys-{AOMK} [Z-Arg-Lys-AOMK]

% inhibition of enzyme activity at 16,000 nM inhibitor, pH 4.6 [6]: 10%
IC50 of inhibition of enzyme activity (Z-Phe-Arg-AMC substrate), pH 4.6 [6]: > 16 µM
IC50 of inhibition of enzyme activity (Gly-Arg-AMC substrate), pH 4.6 [7]: 8.6 µM
IC50 of inhibition of enzyme activity (Gly-Arg-AMC substrate), pH 7.2 [7]: 12 µM
% inhibition of enzyme activity at 16,000 nM inhibitor, pH 4.6 [8]: 23%
IC50 of inhibition of enzyme activity (Z-Phe-Arg-AMC substrate), pH 4.6 [8]: > 16 µM
% inhibition of enzyme activity at 16,000 nM inhibitor, pH 4.6 [10]: 26%
% inhibition of enzyme activity at 16,000 nM inhibitor, pH 7.2 [10]: 30%
IC50 of inhibition of enzyme activity (Z-Phe-Arg-AMC substrate), pH 4.6 [10]: > 16 µM
IC50 of inhibition of enzyme activity (Z-Phe-Arg-AMC substrate), pH 7.2 [10]: > 16 µM
% inhibition of enzyme activity at 16,000 nM inhibitor, pH 7.2 [11]: 10%
IC50 of inhibition of enzyme activity (Z-Phe-Arg-AMC substrate), pH 4.6 [11]: 1.9 µM
IC50 of inhibition of enzyme activity (Z-Phe-Arg-AMC substrate), pH 7.2 [11]: > 16 µM
Molecule: Cbz-Glu-Lys-{AOMK} [Z-Glu-Lys-AOMK]

Source: patent US20240181068A1, “SELECTIVE NEUTRAL PH INHIBITOR OF CATHEPSIN B” (The Regents of the University of California, priority 2021, published 2024)
